Where two headings read alike, the source gives them in different places.
Legend:
Experiment in all cases: two-hybrid; bacterial adenylate cyclase two-hybrid (BACTH) in E. coli BTH101 (cya) or derivatives (ΔdsbA AP58, ΔdjlA AP63, rcsB::tet EAW1, rcsC::tet EAW2, rcsF::cat EAW4); proteins fused at their C-terminus to T18 or T25; some sets with DjlA or DjlA variants co-expressed downstream of IgaA-T18; overnight growth in LB with 0.5 mM IPTG at 30°C; beta-galactosidase (ONPG, OD420 kinetics at 28°C), plotted relative to IgaA/RcsD
RcsD (E. coli) [1] = target: RcsD (E. coli) (UniProt P39838)
UniProt P39838, sequence (P39838 whole entry): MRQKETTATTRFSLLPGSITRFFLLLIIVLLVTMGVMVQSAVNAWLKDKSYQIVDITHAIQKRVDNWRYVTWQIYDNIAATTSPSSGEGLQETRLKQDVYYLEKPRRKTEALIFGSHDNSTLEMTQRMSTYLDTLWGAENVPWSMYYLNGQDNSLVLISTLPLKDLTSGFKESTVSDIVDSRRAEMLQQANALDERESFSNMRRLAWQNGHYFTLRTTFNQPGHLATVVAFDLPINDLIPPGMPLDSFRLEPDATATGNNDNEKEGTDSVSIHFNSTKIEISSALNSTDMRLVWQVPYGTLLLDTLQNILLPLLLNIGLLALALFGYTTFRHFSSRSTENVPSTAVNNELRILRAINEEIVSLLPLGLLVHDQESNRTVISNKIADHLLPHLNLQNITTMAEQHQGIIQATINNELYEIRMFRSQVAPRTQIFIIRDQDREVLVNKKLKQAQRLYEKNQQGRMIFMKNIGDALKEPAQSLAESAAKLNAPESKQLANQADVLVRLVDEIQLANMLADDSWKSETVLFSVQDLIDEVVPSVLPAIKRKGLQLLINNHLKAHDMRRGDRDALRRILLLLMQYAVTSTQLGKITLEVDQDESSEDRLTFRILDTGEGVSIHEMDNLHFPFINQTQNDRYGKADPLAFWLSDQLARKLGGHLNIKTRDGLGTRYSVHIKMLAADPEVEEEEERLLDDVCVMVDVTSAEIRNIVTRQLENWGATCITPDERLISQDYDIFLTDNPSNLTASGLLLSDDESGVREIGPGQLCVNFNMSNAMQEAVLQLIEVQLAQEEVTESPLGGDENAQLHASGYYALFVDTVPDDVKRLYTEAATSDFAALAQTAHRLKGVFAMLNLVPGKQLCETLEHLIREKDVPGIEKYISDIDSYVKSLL

RcsD (E. coli) [2] = target: RcsD (E. coli) (UniProt P39838); remark: listed apart in the source
RcsD (E. coli) [3] = target: RcsD (E. coli) (UniProt P39838); remark: listed apart in the source
RcsD (E. coli) [4] = target: RcsD (E. coli) (UniProt P39838); remark: listed apart in the source
RcsD (E. coli) [5] = target: RcsD (E. coli) (UniProt P39838); remark: listed apart in the source
RcsD (E. coli) [6] = target: RcsD (E. coli) (UniProt P39838); remark: listed apart in the source

beta-galactosidase activity (BACTH) (units (1000x the slope of OD420)) (RcsD (E. coli) [1]): 578
beta-galactosidase activity (BACTH) (units (1000x the slope of OD420)) (RcsD (E. coli) [2]): 577
beta-galactosidase activity (BACTH) (units (1000x the slope of OD420)) (RcsD (E. coli) [3]): 490
beta-galactosidase activity (BACTH) (units (1000x the slope of OD420)) (RcsD (E. coli) [4]): 569
beta-galactosidase activity (BACTH) (RcsD (E. coli) [5]): 533 units
beta-galactosidase activity (BACTH) (units (1000x the slope of OD420)) (RcsD (E. coli) [5]): 545
beta-galactosidase activity (BACTH) (units (1000x the slope of OD420)) (RcsD (E. coli) [6]): 580
Substance: IgaA (natural protein)

From PMC11709261
